# Data published in paper PMC6511879 (Nucleic Acids Research, 2019).
# T1: CtKti12 (also ChKti12), full length (Thermochaetoides thermophila, UniProt G0SHI1)
# T1 sequence (G0SHI1 1-378): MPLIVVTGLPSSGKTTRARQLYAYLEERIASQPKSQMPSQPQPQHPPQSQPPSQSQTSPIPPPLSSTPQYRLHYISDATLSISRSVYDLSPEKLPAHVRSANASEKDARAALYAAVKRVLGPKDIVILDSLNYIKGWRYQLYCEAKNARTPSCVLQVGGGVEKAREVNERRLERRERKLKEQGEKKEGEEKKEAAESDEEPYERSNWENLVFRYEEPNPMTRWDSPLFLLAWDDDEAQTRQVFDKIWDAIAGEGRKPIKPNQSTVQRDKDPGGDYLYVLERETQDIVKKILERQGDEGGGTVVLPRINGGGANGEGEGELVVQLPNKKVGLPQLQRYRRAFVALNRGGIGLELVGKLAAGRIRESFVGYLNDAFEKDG
# T2: CtKti12NTD (Thermochaetoides thermophila, UniProt G0SHI1)
# T2 sequence (G0SHI1 2-252): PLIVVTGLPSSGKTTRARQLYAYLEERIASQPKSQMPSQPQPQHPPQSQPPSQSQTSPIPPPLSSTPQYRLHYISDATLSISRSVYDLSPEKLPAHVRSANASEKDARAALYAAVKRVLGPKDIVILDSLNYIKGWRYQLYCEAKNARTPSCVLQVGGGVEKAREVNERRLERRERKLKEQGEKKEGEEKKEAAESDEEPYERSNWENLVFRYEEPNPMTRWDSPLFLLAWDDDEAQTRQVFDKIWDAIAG
# T3: Full length GST-ScElp1 (Saccharomyces cerevisiae, UniProt Q06706 1-1349)
# T3 sequence (looked up): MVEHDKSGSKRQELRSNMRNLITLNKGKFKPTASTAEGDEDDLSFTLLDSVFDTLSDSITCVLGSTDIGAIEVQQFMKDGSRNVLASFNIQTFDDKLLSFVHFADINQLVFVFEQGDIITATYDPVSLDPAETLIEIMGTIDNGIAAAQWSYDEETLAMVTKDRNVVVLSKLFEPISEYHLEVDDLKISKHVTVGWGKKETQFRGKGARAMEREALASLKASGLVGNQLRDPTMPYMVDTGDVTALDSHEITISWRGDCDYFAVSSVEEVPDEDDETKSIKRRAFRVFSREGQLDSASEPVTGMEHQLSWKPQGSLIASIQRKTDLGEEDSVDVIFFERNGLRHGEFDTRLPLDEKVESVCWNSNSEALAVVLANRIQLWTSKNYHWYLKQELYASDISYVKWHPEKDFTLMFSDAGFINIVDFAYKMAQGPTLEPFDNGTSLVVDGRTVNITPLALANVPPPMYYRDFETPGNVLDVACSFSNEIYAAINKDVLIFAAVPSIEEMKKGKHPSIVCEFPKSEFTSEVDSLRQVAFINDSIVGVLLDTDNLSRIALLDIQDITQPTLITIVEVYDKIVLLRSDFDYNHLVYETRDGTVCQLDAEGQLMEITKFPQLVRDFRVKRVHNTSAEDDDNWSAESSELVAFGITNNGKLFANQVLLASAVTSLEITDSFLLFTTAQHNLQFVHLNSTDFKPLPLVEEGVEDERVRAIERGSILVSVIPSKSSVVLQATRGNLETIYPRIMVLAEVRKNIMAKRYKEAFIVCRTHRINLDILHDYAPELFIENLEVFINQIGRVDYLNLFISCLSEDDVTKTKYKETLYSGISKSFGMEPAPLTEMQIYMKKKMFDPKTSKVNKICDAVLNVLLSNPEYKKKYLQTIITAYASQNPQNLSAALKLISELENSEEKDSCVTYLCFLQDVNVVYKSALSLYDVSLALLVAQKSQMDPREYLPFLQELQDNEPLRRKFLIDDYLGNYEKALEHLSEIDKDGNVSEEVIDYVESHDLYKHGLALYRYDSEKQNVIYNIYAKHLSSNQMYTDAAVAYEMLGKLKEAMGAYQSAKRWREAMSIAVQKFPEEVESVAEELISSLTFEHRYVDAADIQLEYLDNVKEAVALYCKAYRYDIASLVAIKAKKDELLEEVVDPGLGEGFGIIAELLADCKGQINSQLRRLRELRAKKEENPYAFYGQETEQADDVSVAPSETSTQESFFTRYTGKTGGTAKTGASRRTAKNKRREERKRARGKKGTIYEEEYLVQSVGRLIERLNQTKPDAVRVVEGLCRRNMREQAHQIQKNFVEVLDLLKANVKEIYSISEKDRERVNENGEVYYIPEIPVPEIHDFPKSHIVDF
# T4: GST-ScElp1 first WD40 domain (aa 42-431) (Saccharomyces cerevisiae, UniProt Q06706 42-431)
# T4 sequence (looked up): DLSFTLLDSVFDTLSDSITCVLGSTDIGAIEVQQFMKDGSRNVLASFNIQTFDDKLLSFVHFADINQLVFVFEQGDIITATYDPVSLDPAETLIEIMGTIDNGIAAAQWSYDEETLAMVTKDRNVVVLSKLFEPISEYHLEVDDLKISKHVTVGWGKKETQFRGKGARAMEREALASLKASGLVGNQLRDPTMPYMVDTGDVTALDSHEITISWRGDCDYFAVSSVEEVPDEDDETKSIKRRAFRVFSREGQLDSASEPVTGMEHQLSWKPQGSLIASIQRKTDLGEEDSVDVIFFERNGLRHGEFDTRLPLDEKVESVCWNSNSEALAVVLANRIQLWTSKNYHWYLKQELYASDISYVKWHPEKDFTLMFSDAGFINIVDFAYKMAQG
# T5: GST-ScElp1 first and second WD40 domains (aa 1-734) (Saccharomyces cerevisiae, UniProt Q06706 1-734)
# T5 sequence (looked up): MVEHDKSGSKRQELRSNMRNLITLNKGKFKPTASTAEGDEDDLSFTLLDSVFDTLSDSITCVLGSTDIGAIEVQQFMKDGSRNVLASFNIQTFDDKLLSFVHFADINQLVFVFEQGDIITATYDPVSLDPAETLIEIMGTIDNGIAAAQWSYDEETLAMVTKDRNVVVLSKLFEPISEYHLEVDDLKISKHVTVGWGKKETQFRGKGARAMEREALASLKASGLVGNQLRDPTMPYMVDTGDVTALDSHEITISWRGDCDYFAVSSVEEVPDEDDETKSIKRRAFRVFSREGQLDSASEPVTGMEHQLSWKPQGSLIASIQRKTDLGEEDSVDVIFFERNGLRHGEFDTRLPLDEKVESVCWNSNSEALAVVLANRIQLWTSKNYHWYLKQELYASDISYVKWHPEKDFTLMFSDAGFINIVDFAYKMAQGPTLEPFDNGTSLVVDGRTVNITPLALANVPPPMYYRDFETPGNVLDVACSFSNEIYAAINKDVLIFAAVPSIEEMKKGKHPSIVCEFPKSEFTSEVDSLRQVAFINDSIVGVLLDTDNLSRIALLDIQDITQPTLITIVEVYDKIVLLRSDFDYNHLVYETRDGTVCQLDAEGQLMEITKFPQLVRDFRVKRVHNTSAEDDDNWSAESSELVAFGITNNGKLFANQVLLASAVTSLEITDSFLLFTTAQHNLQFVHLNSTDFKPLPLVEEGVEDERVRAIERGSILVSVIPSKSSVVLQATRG
# Assays:
# [1] = target: T1, CtKti12 (also ChKti12), full length; conditions: 1 mM ATP; 2 mM MgCl2; pH 7.5
# CtKti12NTD = target: T2, CtKti12NTD; assay: X-ray crystal structure, […] Å; assay type: binding; conditions: bound as ADP·AlF3 with Mg2+, transition state mimic; nucleotide site
# Full length GST-ScElp1 = target: T3, Full length GST-ScElp1; assay: pull-down
# [2] = target: T4, GST-ScElp1 first WD40 domain (aa 42-431); assay: pull-down
# [3] = target: T5, GST-ScElp1 first and second WD40 …; assay: pull-down
molecule,measurement,setting,value
Nc1ncnc2c1ncn2[C@@H]1O[C@H](COP(=O)(O)OP(=O)(O)OP(=O)(O)O)[C@@H](O)[C@H]1O [ATP],dTm,[1],addition of ATP contributed to an increased thermostability of CtKti12 and ScKti12 in vitro
Nc1ncnc2c1ncn2[C@@H]1O[C@H](COP(=O)(O)OP(=O)(O)O)[C@@H](O)[C@H]1O [ADP],"X-ray crystal structure, 2.4 Å",CtKti12NTD,We solved the structure of CtKti12NTD in complex with ADP·AlF3
"ScKti12-6xHis (Saccharomyces cerevisiae Kti12, wild type) (natural protein) MPLVLFTGYPCSGKTTLAKHLVQLLQSKIDATPSLSKYSITYHSDESLGIKHSDYITSQDERKLRSEIISAVKRDLSKNKIVIVDSLNYIKGFRYQLHCEVKNLSTTFCVIQTLCPPETIFEWNKTSNPNPWEPELLNQLIQRYEEPNSSNRWDSPLFAILTPQDNITDYIDDICKVVFQTSKSAKNSGHNDPLSKGLQKPNSATVLKPASQSNFIQVLDIETSKIIKTIMNHIKSLTSIGGVSNGTRVIVSEGITDINDDGCFFVDLPIGNVVTLAQLQRLKRQFINFNKLRDIDQDRIGPLFADYLNKNLN",binding result,Full length GST-ScElp1,binds
same,binding result,[2],binds
same,binding result,[3],binds
